# Patent US12692294B2, “Engineered NRG-1 variants with improved selectivity toward ErbB4 but not against ErbB3” (Amgen Inc., priority 2021, dated 2026)
# Changes are numbered by the printed parent chain.
# B1: :huFcSEFL2(desK)vl31(+):G4SG4:huNRG1(S177-F229)(NRGE1C): N-terminal Fc fusion of NRG1 variant SEQ ID NO:117 (protein)
# chain: DKTHTCPPCPAPELLGGPSVFLFPPKPKDTLMISRTPEVTCVVVDVSHEDPEVKFNWYVDGVEVHNAKTKPCEEQYGSTYRCVSVLTVLHQDWLNGKEYKCKVSNKALPAPIEKTISKAKGQPREPQVYTLPPSREKMTKNQVSLTCLVKGFYPSDIAVEWESNGQPENNYKTTPPVLKSDGSFFLYSKLTVDKSRWQQGNVFSCSVMHEALHNHYTQKSLSLSPGGGGGSGGGGSHLVKCGEKHKSFCVNGGECFMIEGPSNPSRYLCKCPNEFTGDRCQEDFMASFDKTHTCPPCPAPELLGGPSVFLFPPKPKDTLMISRTPEVTCVVVDVSHEDPEVKFNWYVDGVEVHNAKTKPCEEQYGSTYRCVSVLTVLHQDWLNGKEYKCKVSNKALPAPIEKTISKAKGQPREPQVYTLPPSREEMTENQVSLTCLVEGFYPSDIAVEWESNGQPENNYETTPPVLDSDGSFFLYSDLTVDKSRWQQGNVFSCSVMHEALHNHYTQKSLSLSPGK
# modifications: huFcSEFL2(desK)v131(+)G4SG4huNRG1(S177-F229) (NRGE1C)
# B2: :huFcSEFL2(desK)vl31(+):G4SG4:huNRG1(S177-F229)(NRGE1D): N-terminal Fc fusion of NRG1 variant SEQ ID NO:126 (protein)
# chain: B1 chain with K244S, F256Y, I258V, P261S, N263I
# modifications: huFcSEFL2(desK)v131(+)G4SG4huNRG1(S177-F229) (NRGE1D)
# B3: huNRG1(S177-F229)(NRGE1D) (E47V_D48T_F49R_M50L) 6xHis: 6xHis-tagged NRG1 variant SEQ ID NO:130 (protein)
# chain: SHLVKCGESHKSFCVNGGECYMVEGSSIPSRYLCKCPNEFTGDRCQVTRLASFGGGGEGGGGAGGGGHHHHHH
# modifications: 6xHis tag; huNRG1(S177-F229)(NRGE1D) (E47V_D48T_F49R_M50L) 6xHis
# B4: huNRG1(S177-F229) 6xHis: 6xHis-tagged NRG1 fragment S177-F229 without variant mutations (protein)
# chain: SHLVKCAEKEKTFCVNGGECFMVKDLSNPSRYLCKCPNEFTGDRCQNYVMASFGGGGEGGGGAGGGGHHHHHH
# modifications: 6xHis tag; huNRG1(S177-F229) 6xHis
# notes: 6xHis-tagged NRG1 fragment S177-F229 without variant mutations
# Target: T1, ErbB3 (Rattus norvegicus, UniProt Q62799)
# T1 construct: forming the ErbB2/ErbB4 complex in cardiomyocytes and the ErbB2/ErbB3 complex in Schwann cells; endogenous in cells; host or cells: rat Schwann cells
# T1 sequence (Q62799 20-1339): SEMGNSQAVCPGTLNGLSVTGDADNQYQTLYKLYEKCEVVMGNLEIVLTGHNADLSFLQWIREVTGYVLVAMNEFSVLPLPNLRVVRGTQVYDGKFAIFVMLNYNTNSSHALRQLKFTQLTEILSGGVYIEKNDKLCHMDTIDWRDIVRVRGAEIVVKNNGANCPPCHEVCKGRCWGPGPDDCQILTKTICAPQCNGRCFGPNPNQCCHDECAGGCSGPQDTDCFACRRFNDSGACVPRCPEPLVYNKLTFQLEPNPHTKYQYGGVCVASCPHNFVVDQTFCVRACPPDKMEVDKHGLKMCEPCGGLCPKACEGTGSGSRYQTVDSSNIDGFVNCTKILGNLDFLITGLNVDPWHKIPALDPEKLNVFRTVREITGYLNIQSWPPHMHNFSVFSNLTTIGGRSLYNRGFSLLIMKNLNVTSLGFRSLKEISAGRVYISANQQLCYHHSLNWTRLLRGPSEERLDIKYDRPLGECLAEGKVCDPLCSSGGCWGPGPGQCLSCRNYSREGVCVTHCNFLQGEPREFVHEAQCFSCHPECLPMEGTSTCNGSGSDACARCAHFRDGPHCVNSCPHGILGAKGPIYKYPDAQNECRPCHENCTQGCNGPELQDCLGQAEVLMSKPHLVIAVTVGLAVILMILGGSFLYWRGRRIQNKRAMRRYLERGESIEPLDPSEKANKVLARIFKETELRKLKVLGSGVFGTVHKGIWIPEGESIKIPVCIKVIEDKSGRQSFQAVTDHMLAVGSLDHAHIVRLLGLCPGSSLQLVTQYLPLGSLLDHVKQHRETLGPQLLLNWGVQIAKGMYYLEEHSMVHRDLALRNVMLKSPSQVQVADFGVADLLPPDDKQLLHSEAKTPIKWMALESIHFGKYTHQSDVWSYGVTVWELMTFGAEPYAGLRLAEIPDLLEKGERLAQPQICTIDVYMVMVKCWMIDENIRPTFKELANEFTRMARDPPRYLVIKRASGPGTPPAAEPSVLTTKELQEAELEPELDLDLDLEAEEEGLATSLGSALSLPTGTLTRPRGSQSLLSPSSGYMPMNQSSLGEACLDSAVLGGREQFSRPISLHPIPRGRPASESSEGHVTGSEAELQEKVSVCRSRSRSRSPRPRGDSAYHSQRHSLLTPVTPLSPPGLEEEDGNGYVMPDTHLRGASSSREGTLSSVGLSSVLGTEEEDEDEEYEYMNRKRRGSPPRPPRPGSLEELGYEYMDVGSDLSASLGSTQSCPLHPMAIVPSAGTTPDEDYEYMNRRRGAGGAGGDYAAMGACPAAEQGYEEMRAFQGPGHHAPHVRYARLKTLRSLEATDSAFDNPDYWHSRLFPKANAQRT
# T1 sequence (P06494 23-1257 partner): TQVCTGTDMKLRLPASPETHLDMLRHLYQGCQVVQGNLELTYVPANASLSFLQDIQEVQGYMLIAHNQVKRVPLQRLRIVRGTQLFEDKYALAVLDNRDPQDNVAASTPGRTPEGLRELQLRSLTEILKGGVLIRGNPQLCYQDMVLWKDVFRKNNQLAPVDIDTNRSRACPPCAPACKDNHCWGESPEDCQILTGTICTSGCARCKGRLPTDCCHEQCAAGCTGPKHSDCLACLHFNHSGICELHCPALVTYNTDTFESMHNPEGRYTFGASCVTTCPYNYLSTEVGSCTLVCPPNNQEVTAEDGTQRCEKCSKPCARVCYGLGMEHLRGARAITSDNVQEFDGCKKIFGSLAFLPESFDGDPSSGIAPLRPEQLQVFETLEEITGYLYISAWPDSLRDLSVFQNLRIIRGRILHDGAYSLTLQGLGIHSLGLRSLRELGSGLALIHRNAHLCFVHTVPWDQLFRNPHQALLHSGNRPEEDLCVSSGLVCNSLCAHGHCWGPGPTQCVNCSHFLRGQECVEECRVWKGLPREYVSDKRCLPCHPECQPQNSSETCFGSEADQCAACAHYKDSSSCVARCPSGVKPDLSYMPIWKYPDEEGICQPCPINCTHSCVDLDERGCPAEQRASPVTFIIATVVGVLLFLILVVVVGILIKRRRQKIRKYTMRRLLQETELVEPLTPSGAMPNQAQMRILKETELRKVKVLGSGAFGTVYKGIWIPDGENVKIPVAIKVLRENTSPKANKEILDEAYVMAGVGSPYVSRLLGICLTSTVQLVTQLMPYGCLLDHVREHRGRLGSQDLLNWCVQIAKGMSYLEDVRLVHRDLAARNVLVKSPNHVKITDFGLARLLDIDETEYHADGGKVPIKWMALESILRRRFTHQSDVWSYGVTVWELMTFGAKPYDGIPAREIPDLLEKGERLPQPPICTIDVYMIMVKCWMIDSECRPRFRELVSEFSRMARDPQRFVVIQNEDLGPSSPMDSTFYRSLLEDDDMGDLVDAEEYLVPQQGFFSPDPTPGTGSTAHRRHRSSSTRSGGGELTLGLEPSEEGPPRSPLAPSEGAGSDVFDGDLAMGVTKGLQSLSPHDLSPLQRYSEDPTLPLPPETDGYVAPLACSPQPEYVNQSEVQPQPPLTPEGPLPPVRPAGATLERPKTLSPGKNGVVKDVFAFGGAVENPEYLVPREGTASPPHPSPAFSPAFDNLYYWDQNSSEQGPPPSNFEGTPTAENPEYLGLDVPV
# Experiment: In vitro phosphorylation of Akt in rat Schwann cells
# Type: cell-based
# Conditions: Akt (Serine 473) phosphorylation, 15 minutes treatment
# Description: (§1) In Vitro Phosphorylation of Akt in Neonatal Rat Cardiomyocytes and Rat Schwann Cells by Neuregulin Variants
# (§2) Specificity of neuregulin variants towards cardiomyocytes (ErbB4) versus Schwann cells (ErbB3) was tested by measuring Akt activity generated by formation of the ErbB2/ErbB4 and ErbB2/ErbB3 complexes. Upon activation by neuregulin, the ErbB4 and ErbB3 receptors dimerize preferentially with the ErbB2 co-receptor, forming the ErbB2/ErbB4 complex in cardiomyocytes and the ErbB2/ErbB3 complex in Schwann cells, both of which signal through the Akt pathway. Neonatal rat cardiomyocytes were isolated from hearts of Sprague Dawley rat pups at 0 to 4 days old according to manufacturer's protocol using the Neomyt kit and plated on Surecoat plates in NS media containing serum (all from Cellultron Life Technologies, Baltimore, MD). Rat Schwann cells were plated in Poly-D-Lysine coated plates with Dulbecco's modified Eagle's media (DMEM) supplemented with fetal bovine serum (Thermo Fisher) and forskolin (Millipore Sigma).
# (§3) After a 24-hour incubation in a humidified incubator maintained at 37° C. and 5% CO2, cardiomyocytes and Schwann cells were washed with serum free media and incubated an additional 16 hours in DMEM supplemented with bovine serum albumin (Sigma). Both cell lines were then treated with titrations of the neuregulin variant molecules for 15 minutes, upon which cells were lysed in lysis buffer (Meso Scale Discovery (MSD)). For detection of Akt phosphorylation, lysates were added to the Multi-Spot 96-Well 4-Spot Phospho (Serine 473)/Total Akt plates (MSD), incubated according to the manufacturer's protocol and read in the SECTOR Imager 6000 (MSD). For both cell assays, the percent phosphorylation of Akt was calculated by multiplying the phospho Akt signal by 2, then dividing by the phospho Akt signal added to the total Akt signal and then multiplying by 100. The phosphorylation of Akt data points were fitted using a log (agonist) versus response, variable slope (4 parameters) analysis in GraphPad Prism to generate EC50 curves. The CM % agonism reflect the top value of the data points.
row,Molecule,Schwann cells (SC) (ErbB3) Avg EC50 (M)
1,B1,inactive
2,B2,inactive

# Same assay, conditions: Akt (Serine 473) phosphorylation, 15 minutes treatment, read-out: Schwann cells (SC) (ErbB3) Avg EC50
row,Molecule,EC50
1,B3,10000 nM
2,B4,3.62 nM

# Target: T2, ErbB4 (Rattus norvegicus, UniProt Q62956)
# T2 construct: forming the ErbB2/ErbB4 complex in cardiomyocytes and the ErbB2/ErbB3 complex in Schwann cells; endogenous in cells; host or cells: primary neonatal rat cardiomyocytes (Sprague Dawley pups, 0 to 4 days old)
# T2 sequence (Q62956 26-1308): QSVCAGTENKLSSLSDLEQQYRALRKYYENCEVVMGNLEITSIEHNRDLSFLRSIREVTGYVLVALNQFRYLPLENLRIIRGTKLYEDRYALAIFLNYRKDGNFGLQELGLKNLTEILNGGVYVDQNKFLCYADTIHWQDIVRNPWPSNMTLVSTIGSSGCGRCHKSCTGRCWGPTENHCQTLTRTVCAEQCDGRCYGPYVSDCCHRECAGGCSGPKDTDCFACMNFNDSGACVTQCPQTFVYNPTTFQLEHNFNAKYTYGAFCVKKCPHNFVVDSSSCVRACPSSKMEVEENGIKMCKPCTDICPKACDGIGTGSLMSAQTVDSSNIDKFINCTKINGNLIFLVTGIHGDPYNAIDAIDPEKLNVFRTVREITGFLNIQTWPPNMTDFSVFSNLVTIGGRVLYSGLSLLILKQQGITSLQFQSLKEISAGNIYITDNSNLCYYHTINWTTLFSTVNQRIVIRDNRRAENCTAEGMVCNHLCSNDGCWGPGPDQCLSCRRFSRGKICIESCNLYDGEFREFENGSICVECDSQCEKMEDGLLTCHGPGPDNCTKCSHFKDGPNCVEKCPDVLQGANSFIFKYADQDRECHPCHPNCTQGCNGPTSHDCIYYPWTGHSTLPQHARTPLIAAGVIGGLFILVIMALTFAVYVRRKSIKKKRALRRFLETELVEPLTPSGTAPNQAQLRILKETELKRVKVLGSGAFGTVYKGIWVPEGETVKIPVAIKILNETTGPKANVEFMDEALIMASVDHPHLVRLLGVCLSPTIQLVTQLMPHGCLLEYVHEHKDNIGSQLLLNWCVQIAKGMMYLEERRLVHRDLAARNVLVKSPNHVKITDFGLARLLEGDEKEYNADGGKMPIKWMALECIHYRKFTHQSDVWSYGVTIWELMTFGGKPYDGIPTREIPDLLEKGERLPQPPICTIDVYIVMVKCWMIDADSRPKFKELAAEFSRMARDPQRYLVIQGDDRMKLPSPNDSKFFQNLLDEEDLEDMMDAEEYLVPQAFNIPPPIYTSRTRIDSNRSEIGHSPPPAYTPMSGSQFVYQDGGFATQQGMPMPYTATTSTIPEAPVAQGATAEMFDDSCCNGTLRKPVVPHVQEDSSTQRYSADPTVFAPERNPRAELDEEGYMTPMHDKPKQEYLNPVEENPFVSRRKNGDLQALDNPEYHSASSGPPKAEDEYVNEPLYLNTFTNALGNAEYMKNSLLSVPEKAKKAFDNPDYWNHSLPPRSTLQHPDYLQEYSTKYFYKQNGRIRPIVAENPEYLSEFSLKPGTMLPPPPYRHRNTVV
# T2 sequence (P06494 23-1257 partner): as the sequence (P06494 23-1257 partner) above
# Experiment: In vitro phosphorylation of Akt in neonatal rat cardiomyocytes
# Type: cell-based
# Conditions: Akt (Serine 473) phosphorylation, neonatal rat cardiomyocytes, 15 minutes treatment; read-out: Cardiomyocyte (CM) (ErbB4) Avg EC50
# Description: as §1, §2, §3
row,Molecule,EC50
1,B1,6.4 nM
2,B2,4.3 nM
3,B3,0.224 nM
4,B4,0.587 nM

# Same assay, conditions: ratio of EC50s Schwann cells/cardiomyocytes
row,Molecule,Selectivity SC/CM
1,B1,>10000
2,B2,>10000
3,B3,>10000
4,B4,6.165

# Same assay, conditions: top value of the Akt phosphorylation data points in cardiomyocytes; wild-type control 100
row,Molecule,CM % Agonism AVG
1,B1,62.7%
2,B2,72.3%
3,B3,97.95%
4,B4,97.51%
